What was measured:
[1] = target: Munc13-1 MUN domain (residues 933 to 1407, EF, 1453 to 1531) (rat, UniProt Q62768 933-1407; Q62768 1453-1531); assay: ITC
MUN W1165A = MUN W1165A (rat, UniProt Q62768 933-1407; Q62768 1453-1531, W1165A); assay: pull-down

fold change of the dissociation constant against Doc2B (13 to 37) [1] | stoichiometry N [1] | binding result (MUN W1165A) | Binder
10 fold | – | – | GST-Doc2B 13 to 80 (Mid-L) (domain or fragment, mouse, UniProt P70169 13-80, looked up) SIQEHMAIDVCPGPIRPIKQISDYFPRFPRGLPPTAAPRAPAPPDAPARSPAASASPRSPSDGARDDD
10 fold | 1 | binds | GST-Doc2B FL (full-length Doc2B, residues 1 to 412) (natural protein, mouse, UniProt P70169 1-412, looked up) MTLRRRGEKATISIQEHMAIDVCPGPIRPIKQISDYFPRFPRGLPPTAAPRAPAPPDAPARSPAASASPRSPSDGARDDDEDVDQLFGAYGASPGPSPGPSPARPPAKPPEDEPDVDGYESDDCTALGTLDFSLLYDQENNALHCTISKAKGLKPMDHNGLADPYVKLHLLPGASKANKLRTKTLRNTLNPSWNETLTYYGITDEDMVRKTLRISVCDEDKFRHNEFIGETRVPLKKLKPNHTKTFSICLEKQLPVDKAEDKSLEERGRILISLKYSSQKQGLLVGIVRCAHLAAMDANGYSDPYVKTYLKPDVDKKSKHKTAVKKKTLNPEFNEEFCYEIKHGDLAKKTLEVTVWDYDIGKSNDFIGGVVLGINAKGERLKHWFDCLKNKDKRIERWHTLTNELPGAVLSD

Reference: publication PMC11100570 (Science Advances, 2024)
